This data set in a line: yeast display, Sf9 membrane polyspecificity reagent, FACS + sequencing; frameworks hold sequencing errors. In short, it runs like this:
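Synthetic nanobody libraries on Saccharomyces cerevisiae BJ5465 were galactose-induced for 36–48 hours, stained 1 hour at 4 °C with 10% biotinylated, detergent-solubilized Sf9 membrane reagent and enriched on streptavidin microbeads. FACS then separated cells into low and high (top ~1%) gates by anti-HA (expression) and streptavidin (reagent binding) fluorescence. Genes were colony-PCR amplified, MiSeq 2 × 250 sequenced and CDR-length filtered. A clone's polyreactivity label is that of its gate of origin.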
Take “QVQLVESGGGLVQAGGSLRLSCAASGRIFWANAMGWYRQAPGKERELVAAISKSGDSTYYADSVKGRFTISRDTAKNTVYLEMSWLKPEDTAVYSCAADEYASRFSFKYDYWGQGTQVTVSS”: the “polyreactivity (PSR sort gate)” value is “high polyreactivity”.

Regarding “QVQLVESGGGLVQAGGSLRLSCAASGRIFWDNAMGWYRQAPGKERELVAAISDSVVITYYADSVKGRFTISRDNAKNTVYLQMNSLKPEDTAVYYCAADKRGTVYLSSFWMDYWGQGTQVTVSW”, the “polyreactivity (PSR sort gate)” value is recorded as “low polyreactivity”.

As for “QVQLVESGGGLVQAGGSLRLSCAASGRIFWDNAMGWYRQAPGKERELVADITWRSDSTYYADSVKGRFTISRDNAKNTVYLQMNSLKPEATAVYYCAKPINIYPYDYWGQGTQVTVSS”, the “polyreactivity (PSR sort gate)” value is recorded as “low polyreactivity”.

“QVQLVESGGGLVQAGGSLRLSCAASGRIFWDYALGWYRQAPGKERELVAVITFSGDSTYYADSVKGRFTISRDNAKNTVYVQMNSLKPEDTAVYYCAAARAIRQFWYVATFEYWGQGTQVTVSS”: the “polyreactivity (PSR sort gate)” value is on record as “low polyreactivity”.

Regarding “QVQLVESGGGLVQAGGSLRLSCAASGRIFWFNSMGWYRQAPGKERELVAAIDSVGSTYYADSVKGRFTISRDNAKNTVYLQMNSLKPEDTAVYYCAKSTRPVSGVPDGPLYEYWGQGTQVTVSS”, the “polyreactivity (PSR sort gate)” value was “low polyreactivity”.

Regarding “QVQLVESGGGLVQAGGSLRLSCAASGRIFWGNGMGWYRQAPGKEREFVAAISKSGGSTYYADSVKGRFTISRDNAKNTVYLQMNSLKPEDTAVYYCAARAPYSYSGYGYWGQGTQVTVSS”, the “polyreactivity (PSR sort gate)” value is “high polyreactivity”.

As for “QVQLVESGGGLVQAGGSLRLSCAASGRIFWGNGMGWYRQAPGKEREFVAAISKSGGSTYYADSVKGRFTISRDNAKNTVYLQMNSLKPEDTAVYYCNARTSRYRRGGDSWGQGTQVTVSS”, the “polyreactivity (PSR sort gate)” value is “high polyreactivity”.

As for “QVQLVESGGGLVQAGGSLRLSCAASGRIFWGYAMGWYRQAPGKERELVARITSGGDTYYADSVKGRFTISRDNAKNTVYLQMNSLKPEDTAVYYCAISTAVKPYAYRESGFIYDYWGQGSQVTVSS”, the “polyreactivity (PSR sort gate)” value was “low polyreactivity”.

Take “QVQLVESGGGLVQAGGSLRLSCAASGRIFWGYVMGWYRQAPGKERELVAAISSGGDTHYADSVKGRFTISRDNAKKTVYLQMNSLKPEDTAVYYCAARPNFTPYEYGYWGQGTQVTVSS”: the “polyreactivity (PSR sort gate)” value is “low polyreactivity”.

On to “QVQLVESGGGLVQAGGSLRLSCAASGRIFWPNAMGWYRQAPGKERELVAAISYSGGSTYYADSVKGRFTISRDNAKNTVYLQMNSLKPEDTAVYYCAATRSVRISGDGYLGYDYWGQGTQVTVSS”, for which the “polyreactivity (PSR sort gate)” value is “high polyreactivity”.

As to “QVQLVESGGGLVQAGGSLRLSCAASGRIFWQNAKGWYRQAPGKERELVAAISSRGGTTYYADSVKGRFTISRDNAKNTVYLQMNRLKPEDTAVYYCNAALLLRYRGFFTVAAYDYWGQGTQVTVSS”, the “polyreactivity (PSR sort gate)” value is given as “low polyreactivity”.

As for “QVQLVESGGGLVQAGGSLRLSCAASGRIFWSYAMGWYRQAPGKERELVAAITWRTGRTYYADSVKGRFTISRDNAKNTVYLQMNSLKPEDTAVYYCAAEGYLWGQSYNGLNYDSWGQGTQVTVSS”, the “polyreactivity (PSR sort gate)” value is given as “low polyreactivity”.

On to “QVQLVESGGGLVQAGGSLRLSCAASGRIFWTNAMGWYRQAPGKERELVAAISYRGGRTYYADSVKGRFTISRDNAKNTVYLQMNSLKPEDTAVYYCAAFTAQGPKYDYWGQGTQVTVSS”, for which the “polyreactivity (PSR sort gate)” value is “high polyreactivity”.

In the case of “QVQLVESGGGLVQAGGSLRLSCAASGRIFWTNAMGWYRQEPGKERELVAAISYNGASTFYADSVKGRFTISLDNAKNTVNLQMNSLKPEDTAVYSCNAYSSRYRYNYWGQGTQVTVSS”, the “polyreactivity (PSR sort gate)” value is “high polyreactivity”.

For “QVQLVESGGGLVQAGGSLRLSCAASGRIFWTYAMGWYRQAPGKERELVASITWSGGTTYYADSVKGRFTISRDNAKNTVYLQMNSLKTEDTAVYYCNTDVLAPYDSGYWGQGTQVTVSS”, the “polyreactivity (PSR sort gate)” value is on record as “low polyreactivity”.

“QVQLVESGGGLVQAGGSLRLSCAASGRIFWVYAMGWYRQAPGKERELVAAISLSGGLTYYADSVKGRFTITRDNAKNTVYLQMNSLKPEDTAVYYCNAVYPKRGGGRIVDYWGEGTQVTVSS”: the “polyreactivity (PSR sort gate)” value was “high polyreactivity”.

Regarding “QVQLVESGGGLVQAGGSLRLSCAASGRIFWYYAMGWSRQAPGKERELVATISYGGGNTYYADSVKGRFTISRDNAKNTVYLQMNSLKPEDTAVYYCARVPYAYLPYKPFQQYSYDYWGQGTQVTVSS”, the “polyreactivity (PSR sort gate)” value is on record as “high polyreactivity”.

On to “QVQLVESGGGLVQAGGSLRLSCAASGRIFWYYAMGWYRQAPGKERELVAAISRSGGSTYYADSVKGRFTISRDNAKNTVYLQMNSLKPEDTAVYYCAAGARAFDDDSWGQGTQVTVSS”, for which the “polyreactivity (PSR sort gate)” value is “low polyreactivity”.

On to “QVQLVESGGGLVQAGGSLRLSCAASGRIFWYYAMGWYRQAPGKERELVAAITKSGGSTYYADSVKGRFTISRDYAKNTVYLQMNSLKPEDTAVYYCAAPTWTRSSFDYWGQGTQVTVSS”, for which the “polyreactivity (PSR sort gate)” value is given as “high polyreactivity”.

On to “QVQLVESGGGLVQAGGSLRLSCAASGRIFWYYAMGWYRQAPGKERELVATISSGGRTNYADSVKGRCTISRDNAKNTVYLQMNSLKPEDTAVYYCAAKHPISTLYDYWGQGTQVTVSS”, for which the “polyreactivity (PSR sort gate)” value is listed as “high polyreactivity”.

As to “QVQLVESGGGLVQAGGSLRLSCAASGRIFWYYAMGWYRQAPGKERELVATISYGGGNTYYADSVKGRFTISRDNAKNTVYLQMNSLKPEDTAVYYCARVPYAYLPYKPFQQYSYDYWGQGTQVTVSS”, the “polyreactivity (PSR sort gate)” value is listed as “high polyreactivity”.

For the sequence “QVQLVESGGGLVQAGGSLRLSCAASGRIFWYYAMVWYRQAPGKERELVATISSRSGSTYYADSVKGRFTISRDNAKNTVYLQMNSLKPEDTAVYYCAAGTPYYLGYRHNYWGQGTQVTVSS”, the “polyreactivity (PSR sort gate)” value is “high polyreactivity”.

In the case of “QVQLVESGGGLVQAGGSLRLSCAASGRIFWYYTMGWYRQAPGKERELVASINSDTGTYYADSVKGRFTISRDNAKNTVYLQMNSLKPEDTAVYYCNKDDYALSNTWRPEYDYWGQGTQVTVSS”, the “polyreactivity (PSR sort gate)” value is “low polyreactivity”.

As for “QVQLVESGGGLVQAGGSLRLSCAASGRIFYANAMGWYRQAPGKERELVAAISSGGSTYYADSVKGRFTISRDNAKNTVYLQMNSLKPEDTAVYYCATDYQSTSVWGGHFVINPYDYWGQGTQVTVSS”, the “polyreactivity (PSR sort gate)” value was “low polyreactivity”.

For “QVQLVESGGGLVQAGGSLRLSCAASGRIFYAYAKGWYRPAPGKEREVVAAITRGGSTYYADSVKGRFTISRDNAKNTVYLQLNCLKREDTAVYSWAAQGYAPPLGESLGYWGEGTQVTVSS”, the “polyreactivity (PSR sort gate)” value is listed as “low polyreactivity”.

Regarding “QVQLVESGGGLVQAGGSLRLSCAASGRIFYAYAMGGYRQAPGKERELVASISGGGSTDYADSVKGRFTISRDNAMNTVYLQMNSLKPEDTAVYDCAAKRISYYSYNFDYWGEGTQVTVSS”, the “polyreactivity (PSR sort gate)” value was “high polyreactivity”.

Take “QVQLVESGGGLVQAGGSLRLSCAASGRIFYAYAMGWYRQAPGKERELVAAISSSGRTYYADSVKGRFTISRDNAKNTVYLQMNSLKPEDTAVYYCAAPGSPYGYWGQGTQVTVSS”: the “polyreactivity (PSR sort gate)” value was “high polyreactivity”.

For “QVQLVESGGGLVQAGGSLRLSCAASGRIFYAYAMGWYRQAPGKERELVAAITARGGSTYYADSVKGRFTISRDNAKTTVYLQMNSLKPEDTAVYYCAKDTLLETGYEYWGQGTQVTVSS”, the “polyreactivity (PSR sort gate)” value is reported as “high polyreactivity”.

Turning to “QVQLVESGGGLVQAGGSLRLSCAASGRIFYAYTMGRSRQAPGKERELVAAISGSGSTYYADSVKGRFTISRDNAKNTVYLQMNSLKPEDTAVYYCAADVTGGRKYDYWGQGTQVTVSS”, the “polyreactivity (PSR sort gate)” value is reported as “low polyreactivity”.

“QVQLVESGGGLVQAGGSLRLSCAASGRIFYDNTMGWYRQAPGKERELFAAITWRVGNTNYADSVKGRFTISRDNAKNTVYLQMNSLNPEDTAVYYCAVRLLADDGYPAVVGYDYWGQGTQVTVSS”: the “polyreactivity (PSR sort gate)” value is “low polyreactivity”.

Take “QVQLVESGGGLVQAGGSLRLSCAASGRIFYFNAMGWYRQAPGKERELVADISTGGRTNYADSVKGRFTISRDNAKNTVYLQMNSLNPEDTAVYYCNAEPYTSSGGYRGYDFDYWGQGTQVTVSS”: the “polyreactivity (PSR sort gate)” value is “low polyreactivity”.

Take “QVQLVESGGGLVQAGGSLRLSCAASGRIFYFNTMGWYRQAHGKEIELVAAITRNGGSTYYADSVKWRFTISRDNAKNTVYFQMNSLKPEDTAVYYCNARYRAAKRGKAWYRYDYWGQGTQVTVSS”: the “polyreactivity (PSR sort gate)” value is “high polyreactivity”.

In the case of “QVQLVESGGGLVQAGGSLRLSCAASGRIFYFNTMGWYRQAPGKERELVAAITGSGSSTYYADSVKGRFTISRDNAKNTVYLQMNSLKPEDTAVYYCAAYGFSRNGYTYGHDDWGQGTQVTVSS”, the “polyreactivity (PSR sort gate)” value is on record as “low polyreactivity”.

As for “QVQLVESGGGLVQAGGSLRLSCAASGRIFYFYAMGWYRQAPGKERELVAAITSGGGTYYADSVKGRFTISRDNAKNTVYLQMNSLKPEDTAVYYCDVRVYRTSWQGYYYWGQGTQVTVSS”, the “polyreactivity (PSR sort gate)” value is “high polyreactivity”.

Regarding “QVQLVESGGGLVQAGGSLRLSCAASGRIFYGNAMGWYRQAPGKERELVAAISKRGGSTHYADSVKGRFTISRDNAKNPVYLQMNSLKPEDTAVDYCATDSYYVGAVHYYYWGQGTQVTVSS”, the “polyreactivity (PSR sort gate)” value is “high polyreactivity”.

As to “QVQLVESGGGLVQAGGSLRLSCAASGRIFYGNAMGWYRQAPGKERELVATISSSGGRTTYADSVKGRFTISRDNAKNTVYLQMNSLKPEDTAVYYCADQGYWTGYDYWGQGTQVTVSS”, the “polyreactivity (PSR sort gate)” value is “high polyreactivity”.

As to “QVQLVESGGGLVQAGGSLRLSCAASGRIFYGNAMGWYRQPPGKERELFAGITRSSGTSTYYADSVKVRFTISRDNAKYTVYLQMNSMNPEDTAVYYCAAPPDSYYYYKVPVVPYDYWGQGTQVTVSS”, the “polyreactivity (PSR sort gate)” value is reported as “low polyreactivity”.

For “QVQLVESGGGLVQAGGSLRLSCAASGRIFYGNAMGWYRQSPGKERELVASITSSGSTKYADSVKGRFTISRDNAKNTVYLQMNSLKPEDTAVYYCAASSTKRYDTYAGYDYWGQGTQVTVSS”, the “polyreactivity (PSR sort gate)” value is recorded as “low polyreactivity”.

For the sequence “QVQLVESGGGLVQAGGSLRLSCAASGRIFYGNTLGWYRQAPGKERELVAAISSGGSTNYADSVKGRFTISRDNAKNTVYLQMNSLKPEDTAVYYCAAAGRPGGYVQRDSWGQGTQVTVSS”, the “polyreactivity (PSR sort gate)” value is given as “high polyreactivity”.

Regarding “QVQLVESGGGLVQAGGSLRLSCAASGRIFYGNTMGWYRPAPGKERELVAAITGSGTSTYYADSVKGRFTISRDNAKNTVYLQMNSLKPEDTAVYYCNADRPVYVDYINGGYGYWGQGTQVTVSS”, the “polyreactivity (PSR sort gate)” value is reported as “low polyreactivity”.

The values above are taken from the nanobody polyreactivity screen of Harvey et al. (2022).
